This is an account of results in US20220106400A1 (published 2022).

The target of the test is T1, human GITR on cells (human, UniProt Q9Y5U5 26-241).
T1 chain: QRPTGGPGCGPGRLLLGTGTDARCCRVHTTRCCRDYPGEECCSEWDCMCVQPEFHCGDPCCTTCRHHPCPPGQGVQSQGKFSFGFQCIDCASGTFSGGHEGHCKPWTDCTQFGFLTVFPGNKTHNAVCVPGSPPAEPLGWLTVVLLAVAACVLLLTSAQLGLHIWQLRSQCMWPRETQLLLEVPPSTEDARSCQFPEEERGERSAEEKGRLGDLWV
Put plainly: FACS binding to anti-CD3/CD28-activated human CD4 T cells.

B1: anti-GITR-IgG2 (antibody)
heavy: QVQLVESGGGVVQPGRSLRLSCAASGFTFSSYGMHWVRQAPGKGLEWVAVIWYEGSNKYYADSVKGRFTISRDNSKNTLYLQMNSLRAEDTAVYYCARGGSMVRGDYYYGMDVWGQGTTVTVSSASTKGPSVFPLAPCSRSTSESTAALGCLVKDYFPEPVTVSWNSGALTSGVHTFPAVLQSSGLYSLSSVVTVPSSNFGTQTYTCNVDHKPSNTKVDKTVERKCCVECPPCPAPPVAGPSVFLFPPKPKDTLMISRTPEVTCVVVDVSHEDPEVQFNWYVDGVEVHNAKTKPREEQFNSTFRVVSVLTVVHQDWLNGKEYKCKVSNKGLPAPIEKTISKTKGQPREPQVYTLPPSREEMTKNQVSLTCLVKGFYPSDIAVEWESNGQPENNYKTTPPMLDSDGSFFLYSKLTVDKSRWQQGNVFSCSVMHEALHNHYTQKSLSLSPGK
light: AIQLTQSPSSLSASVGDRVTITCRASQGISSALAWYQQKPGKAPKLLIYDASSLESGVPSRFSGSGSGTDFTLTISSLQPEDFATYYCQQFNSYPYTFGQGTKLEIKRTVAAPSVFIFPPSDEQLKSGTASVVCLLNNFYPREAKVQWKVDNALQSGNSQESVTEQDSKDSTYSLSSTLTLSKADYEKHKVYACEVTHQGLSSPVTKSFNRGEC
The term EC50 denotes the concentration that produces a half-maximal response. Read a high EC50 as lower potency in that assay. Molecule B1 yielded an EC50 of 0.277 nM.

B2: anti-GITR-IgG2-IgG1.1 (antibody)
heavy: QVQLVESGGGVVQPGRSLRLSCAASGFTFSSYGMHWVRQAPGKGLEWVAVIWYEGSNKYYADSVKGRFTISRDNSKNTLYLQMNSLRAEDTAVYYCARGGSMVRGDYYYGMDVWGQGTTVTVSSASTKGPSVFPLAPCSRSTSESTAALGCLVKDYFPEPVTVSWNSGALTSGVHTFPAVLQSSGLYSLSSVVTVPSSNFGTQTYTCNVDHKPSNTKVDKTVERKCCVECPPCPAPPVAGPSVFLFPPKPKDTLMISRTPEVTCVVVDVSHEDPEVKFNWYVDGVEVHNAKTKPREEQYNSTYRVVSVLTVLHQDWLNGKEYKCKVSNKALPSSIEKTISKAKGQPREPQVYTLPPSREEMTKNQVSLTCLVKGFYPSDIAVEWESNGQPENNYKTTPPVLDSDGSFFLYSKLTVDKSRWQQGNVFSCSVMHEALHNHYTQKSLSLSPG
light: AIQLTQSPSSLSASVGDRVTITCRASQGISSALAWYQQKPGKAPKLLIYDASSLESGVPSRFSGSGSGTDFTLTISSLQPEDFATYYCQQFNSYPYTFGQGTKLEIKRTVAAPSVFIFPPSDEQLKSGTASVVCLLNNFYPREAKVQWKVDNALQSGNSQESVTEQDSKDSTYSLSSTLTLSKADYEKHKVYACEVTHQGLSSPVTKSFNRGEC
As for B2, it took 0.163 nM to reach a half-maximal effect (EC50).
